Several values for one entry are separate records, joined by “and”; a condition that tells them apart may be missing. Equal entries are not always repeated. Where two headings read alike, the source gives them in different places.

The subject of data set [1] is primary R5 HIV-1 isolates. Nature of the data set: Whole virus replication (neutralization) assay in PBMC, p24 ELISA. In kind it is cell-based. As to conditions: variety of primary R5 strains (FIG. 1). The protocol:
The data reflect the median values from 8 or more independent assays. The genetic subtypes of the viruses are indicated in parentheses.
Replication of authentic HIV-1 is measured in activated peripheral blood mononuclear cells (PBMCs) using the monocyte/macrophage-tropic HIV-1 clone, JRFL (HIV-1JRFL), for these studies.
PBMCs are isolated from 4 separate donors (Leukopacks) by centrifugation on a Ficoll gradient. CD8 cells are depleted using RosetteSep CD8 Depletion Cocktail (#15663, StemCell Research, Vancouver, BC). […]
Serial dilutions of virus are tested in quadruplicate on activated PBMCs (1.4×10^5 PBMC/well). […] Virus titer is determined by the method of Reed and Muench (Table 11, see below). […]
The percent inhibition is derived as follows [1−(p24 levels in the presence of drug/p24 levels in the absence of drug)]×100. IC50 values are determined by fitting the inhibition data with a non-linear, four-parameter, variable slope equation (GraphPad Prism, ver. 4.02; GraphPad Software, San Diego, Calif.). […]
Serial dilutions of virus are tested in quadruplicate on activated PBMCs (1.4×10^5 PBMC/well). […] Virus titer is determined by the method of Reed and Muench (Table 11).
(In an ELISA, binding on a coated surface is turned into a signal by an enzyme label.)

Data set [2] relates to HIV-1 CC 1/85. As to the kind of experiment: Previous studies (300-TD-028): HIV-1 replication in PBMC quantitated by p24 ELISA, CC 1/85. In kind it is cell-based. The protocol:
The EC values were measured by p24 ELISA in previous studies, according to published methods. Because the p24 ELISA cannot efficiently quantitate p24 from the HIV-2 isolates used in this study, a commercial ELISA that measures reverse transcriptase was chosen as a readout for both the HIV-2 and HIV-1 infection assays in the present study.

Data set [3] concerns HIV-1 (CCR5-tropic virus). In kind it is in vivo. Particulars: for Mean log10 HIV RNA change: Day 10 post-treatment. The text has this: The efficacy data collected during the study were changes in viral load and CD4 counts over time. The safety data collected during the study were serious adverse events (SAEs)/adverse events (AEs) and changes in laboratory parameters (hematology, chemistry), physical exam, viral tropism and ECGs over time.
(§1) All patients were screened prior to the study for the presence of virus that utilizes only CCR5 as the entry coreceptor., i.e., CCR5-tropic virus.
The primary efficacy endpoint was the reduction in plasma HIV RNA level as measured by the Roche Amplicor™ Assay. The primary efficacy endpoint is the maximum change from baseline in viral load, defined as HIV-1 copies/ml, as measured by the Roche Amplicor™ Assay.

The nature of data set [4]: Phase 1b clinical trial: safety, immunogenicity, RANTES, coreceptor tropism (Trofile). In kind it is in vivo, human.
From the text: as §1
Where no CXCR4-using clones are identified in a pre-dose sample from a subject, the on-treatment CXCR4-using virus can be identified as being phylogenetically very distant from the CCR5 tropic baseline virus; in such a case, the emergence of a pre-dose or pre-treatment CXCR4-using virus, i.e., one that is present at baseline, but is not detected, may likely explain the D/M tropism in the subject, as opposed to a tropism switch.

Data set [5] relates to HIV-1. Particulars: Olson et al., 1999; Trkola et al., 2001; cited from earlier work.
Where [6] appears, read: individual assays (Source), previous study, p24 ELISA.
[7] abbreviates: previous studies n = 24, median.

B1: PRO 140: humanized IgG4,κ anti-CCR5 monoclonal antibody, humanized version of murine mAb PA14 (antibody, chains of the INN, looked up, V domains shown)
VH: EVQLVESGGGLVKPGGSLRLSCAASGYTFSNYWIGWVRQAPGKGLEWIGDIYPGGNYIRNNEKFKDKTTLSADTSKNTAYLQMNSLKTEDTAVYYCGSSFGSNYVFAWFTYWGQGTLVTVSS
VL: DIVMTQSPLSLPVTPGEPASISCRSSQRLLSSYGHTYLHWYLQKPGQSPQLLIYEVSNRFSGVPDRFSGSGSGTDFTLKISRVEAEDVGVYYCSQSTHVPLTFGQGTKVEIK
B1: in data set [1], the 90% effect concentration (IC90) (commonly the point of the concentration-response curve where the effect stands at 90%) lay in the range of 3 to 4 µg/mL. For the same molecule, in data set [2] (setting [6]), the EC50 – broadly, the concentration at which the effect is half-maximal – was 1.1 µg/mL and 0.004 µg/mL and 1.4 µg/mL and 0.16 µg/mL and 2.1 µg/mL and 0.006 µg/mL and <0.001 µg/mL and 0.001 µg/mL and 0.01 µg/mL and 4.5 µg/mL and 0.7 µg/mL and 0.96 µg/mL and 0.67 µg/mL and 0.58 µg/mL and 5.4 µg/mL and 4.6 µg/mL and 0.04 µg/mL and 0.85 µg/mL and 7.8 µg/mL and 5.1 µg/mL and 2.7 µg/mL and 0.08 µg/mL and 0.1 µg/mL; the EC90 (in general, the concentration at which the effect reaches the 90% level) was 13 µg/mL and 0.34 µg/mL and 4.2 µg/mL and 3.6 µg/mL and 9.6 µg/mL and 0.22 µg/mL and <0.001 µg/mL and 0.01 µg/mL and 0.03 µg/mL and 1.1 µg/mL and >50 µg/mL and 4.9 µg/mL and 8.1 µg/mL and 24 µg/mL and 33 µg/mL and 7.3 µg/mL and 8.2 µg/mL and 0.88 µg/mL and 3.4 µg/mL. In data set [2] (previous studies n = 24, mean), the “EC50 (mean)” value was less than 1.6 µg/mL and the “EC90 (mean)” value is greater than 12 µg/mL. Besides, in data set [2] (setting [7]), the “EC50 (median)” value worked out at 0.69 µg/mL and the “EC90 (median)” value amounted to 4.9 µg/mL. Further, the “individual viral load reductions ranging up to” value in data set [3] (2.0 mg/kg and 5.0 mg/kg dose levels) was “up to 2.5 log10 and ≤ 99.7%”. In addition, in data set [3] (5 mg/kg), the “Maximum decrease of viral load at any time” value was −1.8 log, the “Patients with <400 copies/mL (anytime)” value is 4/10, the “Patients with >1 log decrease (anytime)” value is given as 10/10 and the “viral load decrease at day 22” value is given as −0.73. In data set [3] (5.0 mg/kg cohort), the “time to suppression of mean viral load by 1.0 log10 (90%)” value was “within four days” and the “time viral load persisted at or below the 1.0 log10 level of reduction” value is recorded as “two to three weeks”. In addition, in data set [3] (0.5 mg/kg), the “Mean log10 HIV RNA change” value was −0.37 log10. The “Mean log10 HIV RNA change” value in data set [3] (2.0 mg/kg) is −1.04 log10. The “Mean log10 HIV RNA change” value in data set [3] (5.0 mg/kg) is reported as −1.70 log10. The “response rate (percentage of patients with a ≧1 log10 decrease in HIV RNA at any time)” value in data set [3] (highest dose cohort) stood at 100%. For the same molecule, in data set [4] (PRO 140 subjects (0.5 mg/kg group, day 8 only)), the “subjects with dual/mixed tropism result post-treatment” value is 1/30. In data set [4] (Phase 1b), the dose-limiting toxicity result was “No dose-limiting toxicity or obvious pattern of toxicity”, the “plasma RANTES (CCL5) chemokine levels” value is reported as “No change in plasma RANTES (CCL5) chemokine levels” and the “treatment related SAEs” value was “No treatment related SAEs”. Moreover, the tolerability result in data set [4] (all study groups (0.5, 2.0, 5.0 mg/kg)) was “well-tolerated”. In addition, the IC90 result in data set [5] is “about 4 μg/ml”.
